The nanobody polyreactivity screen of Harvey et al. (2022)

Experiment: yeast display, Sf9 membrane polyspecificity reagent, FACS + sequencing; frameworks hold sequencing errors
Method in brief: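 A synthetic nanobody library was expressed on Saccharomyces cerevisiae BJ5465 by galactose induction for 36–48 hours. The library was stained for 1 hour at 4 °C with 10% biotinylated, detergent-solubilized Sf9 membrane reagent and enriched with streptavidin microbeads before FACS. Low and high (top ~1%) gates were set on anti-HA fluorescence for expression and streptavidin fluorescence for reagent binding, and each polyreactivity label reflects the gate of origin.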

QVQLVESGAGLVKAGGSLRLSCAASGIIFGNYAMGLYRQAPGKEREFVAAISGSGDSTYYADSVKGRFTISRDNAKNTVYLQMNSLKPEVTAVYYCAADWTLVYYHEDYWGQGTQVTVSS
polyreactivity (PSR sort gate): high polyreactivity

QVQLVESGGVLVQAAGSLRLSCAASGSIFDVNAMGWNRQAPGKEREFVAAISDSGGSTYYADSVKGRFTISRDNGKNTVYLQMNSLKPEDTAVYYCNADWSWYNYYDFDYWGQGTQVTVSS
polyreactivity (PSR sort gate): low polyreactivity

QVQLVESGGGLVQAGGRLRLSCAASLYIYGGYGMGWYRKAPGKERELVAVITSSVSTDYADSVKGSFTISRDNAKNTVYLQMKSLKPEDTAVYYSSADFLWYIYNIGTSLEFEYWGQGTQVTVSS
polyreactivity (PSR sort gate): low polyreactivity

QVQLVESGGGLVQAGGSLRLSCAASRSTFFRYAMGWYRQAPGKERELVAAITWSGGSTYYADSVKGRFTISRDNAKNTVYLQMNSLKPEDTAVYYCAAPWRLFSLYDYWGQGTQVTVSS
polyreactivity (PSR sort gate): low polyreactivity

QLQLGESGGGLVQAGGSLRLSCAASGRTFKDYAMGWYREAPGKERELVAAISWSGGDTYYADSVKGRFTISRDNAKNTVYLQMNSLKPEDTAVYYCNADPSGVFFYSLEFEYWGQGTQVTVSS
polyreactivity (PSR sort gate): low polyreactivity

QVQLVESGGGLVQAGGSLRLSCAASGSIFEPYTMGWYRQAPGKERELVAAITGSGGSTFYADSVKGRFTISRDNAKNTVYLQMNSLKPEDTAVDYCNAYAYPYTDVDYWGQGTQVTVSS
polyreactivity (PSR sort gate): low polyreactivity

QVQLVESGGGLVQAGGSLRLSCAASGRTFSVNDMGWYRQAPGKERELVAAISFSGGSTYYADSVKGRFTISRDNAKNTVYLQMNSLKPEDTAVYYCASEAYPSWFYVITGFGIYDYWGQGTQVTVSS
polyreactivity (PSR sort gate): high polyreactivity

QVQLQESGGGLVQAGGGLRLSCAASGTISGPHVMGWYRQAPGKEREFVAAINVGANTYYADNVKGRFTISRDNAINTVYLQMNSLKPEDTAVYYCAAVYYGDIGHEYWGQGTQVTVSC
polyreactivity (PSR sort gate): low polyreactivity

QVQLVESGGGLVQAGGSLRLSCSASGITFWKYAMGWYRQAPGKERELVASISGRGGSTYYADSVKGRFTISRYKANNTVYLQMNSLKPEDTAVYYCAKYPGISGYNYWGQGTQVTVSS
polyreactivity (PSR sort gate): high polyreactivity

QVHLVESGGGLVQAGGSLRLSCAASGRNFYTNVMGWSRQAPGKERELVAAISSGGGTTYYADSVKGRFTISRDNAKNTVYLQMNSLKPEDTAVYYCAADALSDEYDYWGQGTEVTVSS
polyreactivity (PSR sort gate): low polyreactivity

QVQLVESGGGLVQAGGSLRLSCAASGSTIPDNTMGWYRQAPGKEREFVAAISRIGGTYYADSVKGRFTISRDNAKNYVYLQMNSLKPEDTAVYDCNAYPQGLSGRYHGFDYWGQGTQVTVST
polyreactivity (PSR sort gate): low polyreactivity

QVQLVESGGGLVQAGGSLRLSCAASGRIFTGNALGWYRPAPGKERELVAGISTSGGSTYYADSVKGRFTISRDNAKNTVYLQMNSLKPEDTAVYYCAADWYYRRSYRRMNYWGQGTQVTVSS
polyreactivity (PSR sort gate): high polyreactivity

QVQLVESGGGLVQAGGSLRLSCAASGRIFPYYAMGWYRQAPGKERELVATISTAGSTNYADSVKGRFTISRDNAKNTVYLQMNSMKPEDTAVYYCATRNTWYHRGYDFWGLGTQVTVSS
polyreactivity (PSR sort gate): low polyreactivity

QVQLVESVGGLVQAGGSLRLSCDASGGIFWVYAMGWYRQAPGKERELVAAISNSDTSTSYADSVKGRFTISRDNAKNTVYLQMNSLKPEDTAVYYCNADSPSLSGDYWGQGTQVTVSS
polyreactivity (PSR sort gate): low polyreactivity

QVQLVESGGGLVQAGGSLRLSCAASGSTFPGYAMGWYRQAPGKERELVAAISKRGGSTYYADSVKGRFTISRDNAKNTVYLQMNSLKPEDTAVYYCATVSRKYSLDYWGQGTQVTVSS
polyreactivity (PSR sort gate): high polyreactivity

QVQLVESGGGLVQAGGSLRLSCAASGRIFFYNAMGWYRQAPGKERELVAAIDSGSSTYYADSVKGRFTISRDNAKNTVYLQMTSLKPEDTAVYYCAADGRRWYTEYDYWGQGTQVTVSS
polyreactivity (PSR sort gate): low polyreactivity

QVQLVESGGGLVQAGGSLRLSCAASGSTFYQYSMGLYRQAHVKEREFVAAITTIGGLTFYADSVKGRFTISRDNAKNTVYLQMHSLKPEDTAVYYCAAGYRAWDPYGHYGYWGQGTQVTVSS
polyreactivity (PSR sort gate): high polyreactivity

QVQLVESGGGLVQAGGSLRLSCASSGFIFWYYAMGWYRQAPGKERELVAAISSGDSKNYADSVKGRFTISRDNAKNTVYLQMNCLKPEDTAVYYCAARQPRTQAVYEGYYWGHGTQVTVSS
polyreactivity (PSR sort gate): high polyreactivity

QVQLVESGGGLVQAGCSLRLSCAASGSTFSPNAMGWYRQAPGKERELVASIRIGGRTNYADSVKGRFTISRDNAKNTVYLQMNSLKPEDTAVYYCARRHYYSRFTVSKLSRYDYWGQGTQVTVSS
polyreactivity (PSR sort gate): high polyreactivity

QVQLVESGGGLVQAGGSLRLSCAASGSIFERNAMGWYRQAPGKERELVAGISSSGRTNYADSVKGRFTISRDNAKNTVYLQMNSLKPEDTAVYYCSADTYLYWEYDYWGQGTQVTVSS
polyreactivity (PSR sort gate): low polyreactivity

QVQLVESGGRLVQAGGSLRLSCAASGSTFWYYAMGWYRQAPGKERELVASITYSGGSTYYADSVKGRFTISRDTAKNTVYLQMNSLKPEDTAVYYCAAEGYYSNYHYWGQGTQVTVSS
polyreactivity (PSR sort gate): low polyreactivity

QVQLEESGGGLVQAGGSLRISCAASGRTFNYNAIGWYRQAPGKERELVAAITSGGRTNYADSVKGRFTISRDNAKNTVYLQMNSLKPEDTAVYYCATEYYRYRWVGAFRYPVYYWGQGTQVTVSS
polyreactivity (PSR sort gate): low polyreactivity

QVQLVESGGGLVQAGGSLRLSCAASGLTFYRYAMGWYRQAPGKERELVAAISFSGGSTYYADSVKGRFTISRDNAKNTVYLQMNSLKPEDTAVYYCAKVDTPGSQRYITPEEGPEYDYWGQGTQVTVSS
polyreactivity (PSR sort gate): high polyreactivity

QVQLVESGGGLVQAGGSLRLSFAASGFTFSAYAMGWYRQAPGKERELVASISGSAGSTYYADTVKGRFTISRYNAKNTVYLHMNSLKPEDTAVYYCNARRRQWQARYDYWGQGTQITVSS
polyreactivity (PSR sort gate): high polyreactivity

QVQLVESGGGLVKAGGTLSLSCAASGFIFGFNAMGWYRQAPGKERELVADITSSGGSTYYADSVKGRFTISRDNAKNTVYLQMNSLKPEDTAVYYCAADGWWHNFYPGTGLDYWGQGTQVSVSS
polyreactivity (PSR sort gate): low polyreactivity

QVQLVESGGGLVQAGGSLRLSCAASGSTFGGSAMGWYRQAPGKERELVAAISKSGGSTYYADSVKGRFTISRDNAKNTVYLQMNSLKPEDTAVYYCNAPYKRSPYNYWGQGTQVTVSS
polyreactivity (PSR sort gate): high polyreactivity

QVQLVESGGGLVQAGGSLRLSCAPSGRIFSFNTMVLYRHAPGTEREFVATIRYSGGSTYADSVKGRFTISRDNAKNTVYLQMNSLKPEDTAVYYCAAAWWSYKFNRDFDYWGQGTQVTVSS
polyreactivity (PSR sort gate): low polyreactivity

QVQLVESGGGLVQAGGSLRLSCAASGLTFDSNVMGWYRQAPGKERELVAAITSSGRTYYADSVKGRFTISRDNEKNTVYLQMNSLKPEDTAVYYCAARNLAYTRKGYYYWGQGTQVTVSS
polyreactivity (PSR sort gate): high polyreactivity

QVQLVESGGFLVQAGGSLRLSCDASGSILADTSLGWYRQAPGKERELVAAISRRGGRTYYADSVKGRFTISRDNAKNTVYLQMNSLKPEDTGGYYCAAVGSFHIGDYWGLGTQVTVSS
polyreactivity (PSR sort gate): high polyreactivity

QVLLVESGGGLVQAGGSLRLSSAASGSIFNRYAMGWYRQAPGKDSEFVAAITYSGGSTYYADSVKGRFTISRDNAKNNVYLQMIRVKPEDTAVYYCAKAYYPKGRYGFDYWGQGTQVTVSS
polyreactivity (PSR sort gate): high polyreactivity

QVQLVESGGGLFQAGGSLRLSCAASGRTFKPNTMGWYRQAPGKERELVAAITWRGGSTYYADSVKGRFTISRDNAKNTVYLQMNSLKPEDTAVYYCASARVRTGTGMDYWGQVTQVTVSS
polyreactivity (PSR sort gate): low polyreactivity

QVQLVESGGGLVQAGGSLRLSCAASGIIFRWYVMGWYRQSPGKERELVAAITNGGRTYYADSVKGRFTISRDNAKNTVYLQMNSLKPEDTEVYYCAAYFRRKMDYWGQGTQVTVSS
polyreactivity (PSR sort gate): high polyreactivity

QVHLVESGGGLVQAGGSLRLSCAASGSTFYYNAIGWYRQAPGKERELVARISRSGGSTYADSVKGRFTISRDKAKNTFYLQMNSLKPEDTAVYYCNADAYGTPEFTSYAVRYDYWGQGTQVTVSS
polyreactivity (PSR sort gate): low polyreactivity

QVQLVESGGGLVQAGGSLRLSCAASGSIFSQYAMGWYRQAPGKEREFVAAINWSGGRTRYADSVKGRFTISRDNAKNTVYLEMKSLKPEDTAVYYCNARGYSGVSGKYGYWGQGTQVTVSS
polyreactivity (PSR sort gate): high polyreactivity

QVQLVESGGGLVQAGGSLRLSCAASGSIFFINAMGWYRQAPGKERELVASISQSGVSTYYADSVKGRFTISRDNAKNTVYLQMNSLKPEDTAVYYCATGPVRRARYVWSYTYYYWGQGTQVTVSS
polyreactivity (PSR sort gate): low polyreactivity

QVQLVESGGGLVQAGGSLRLSCAASGSIFAYYAMGRNRQAPGKERELVAAITFSGVSTYYADSVKGRFTISRDNAKNTVYLQMNILKPEDTAVYYCAADPYQNYWWWYDYWGQGTQVTVSS
polyreactivity (PSR sort gate): low polyreactivity

QVQLVESGGGLVQAGGSLRLSCAASGLILYNYAMGWYRQAPGKERELVAAISRSGGSTYYADSVKGRFTISRDNAKNTVYLQMNSLKPEDTAVYYCKVGYGRGSTIGGYDYWGQGTQVTVSS
polyreactivity (PSR sort gate): high polyreactivity

QVQVVESGGGLVQAGGSLRLSCAASGSIFSYNAMGWYRQAPGKERELVATITWSAGSTYYADSVKGRFTISRDNAKNPVYLQMNSLKPEDTAVYYCAKRARESSSVSRVNYWFDYWGQGTQVTVSS
polyreactivity (PSR sort gate): low polyreactivity

QVQLVESGGGLVHAGGSLSLSCAAYYAMGWYRQAPGKERELVAAIDDCTSTNYADSVKGRFTISRDNAKNTVYLQMNSLKPEDTAVDYCNKLSEVTYYGSKFDYWGQGTQVTVSS
polyreactivity (PSR sort gate): low polyreactivity

QVQLVESGGGLVQAGGSLRISCAASGSTFEYYAMGWYRQAPGKERELVATISIDGRTNYADSVKGRFTISRDNAKNTVYLQMNSLKPEDTAVYYCAARPYWRHRYDYWGQGTQVTVSS
polyreactivity (PSR sort gate): low polyreactivity

QVQLVESGGGLVQAGGSLRLSCAASGSIFDTYVMGWYRQAPGKERELVAVISYSGTRTSYADSVKGRFTISRDNAKNTVYLQMNSLKPEDTAVYYCAARVTYYRTYRGRQYGYWGQGTQVTVSS
polyreactivity (PSR sort gate): high polyreactivity

QVQLVESGGGLVKAGGSLRLSCAASGRIFYWYALGWYRQAPGKEREFVAVISQGGGSTRYADSVKGRFTISRDNAKNTVYLHMNSLKPEDTAVYYCAASHSRWRQGYGYWGQGTQVTVSS
polyreactivity (PSR sort gate): high polyreactivity

QVQLVESGGGLVQAGGSLRLSCAASGSIFVRNVMGWYRQAPGKERELVAGISWNGGSTFNADSVKGRFTISRDNAKNTVYLQMNSLKQEDTAVYYCAARGRHSGYYSFPYYYWGQGTQVTVSS
polyreactivity (PSR sort gate): low polyreactivity
